Measurements: PMC6017014, “VpStyA1/VpStyA2B of Variovorax paradoxus EPS: An Aryl Alkyl Sulfoxidase Rather than a Styrene Epoxidizing Monooxygenase” (Molecules : A Journal of Synthetic Chemistry and Natural …, 2018)

Experiments:
[1] = system: Cc1cc2nc3c(=O)[nH]c(=O)nc-3n(C[C@H](O)[C@H](O)[C@H](O)COP(=O)(O)OP(=O)(O)OC[C@H]3O[C@@H](n4cnc5c(N)ncnc54)[C@H](O)[C@@H]3O)c2cc1C; assay: purified protein; format: biochemical, Variovorax paradoxus; settings: 20 mM Tris-HCl pH 7.5, 30 °C
[2] = system: Cc1cc2nc3c(=O)[nH]c(=O)nc-3n(C[C@H](O)[C@H](O)[C@H](O)COP(=O)(O)O)c2cc1C; assay: purified protein; format: biochemical, Variovorax paradoxus; settings: NADH 164 µM, FMN 4.1-90.2 µM, 20 mM Tris-HCl pH 7.5, 30 °C
VpStyA2B = biological target: T1, VpStyA2B (Variovorax paradoxus, UniProt E6V139); assay: NADH consumption at […] nm, Michaelis-Menten fit; format: biochemical; settings: linker AREAV (408-412) replaced/extended; NADH in excess, concentrations as for wild type; 20 mM Tris-HCl pH 7.5, 30 °C; read-out: Acceptor FAD ^1 / Km
T1 construct: gene styA2B
T1 sequence (E6V139 1-578): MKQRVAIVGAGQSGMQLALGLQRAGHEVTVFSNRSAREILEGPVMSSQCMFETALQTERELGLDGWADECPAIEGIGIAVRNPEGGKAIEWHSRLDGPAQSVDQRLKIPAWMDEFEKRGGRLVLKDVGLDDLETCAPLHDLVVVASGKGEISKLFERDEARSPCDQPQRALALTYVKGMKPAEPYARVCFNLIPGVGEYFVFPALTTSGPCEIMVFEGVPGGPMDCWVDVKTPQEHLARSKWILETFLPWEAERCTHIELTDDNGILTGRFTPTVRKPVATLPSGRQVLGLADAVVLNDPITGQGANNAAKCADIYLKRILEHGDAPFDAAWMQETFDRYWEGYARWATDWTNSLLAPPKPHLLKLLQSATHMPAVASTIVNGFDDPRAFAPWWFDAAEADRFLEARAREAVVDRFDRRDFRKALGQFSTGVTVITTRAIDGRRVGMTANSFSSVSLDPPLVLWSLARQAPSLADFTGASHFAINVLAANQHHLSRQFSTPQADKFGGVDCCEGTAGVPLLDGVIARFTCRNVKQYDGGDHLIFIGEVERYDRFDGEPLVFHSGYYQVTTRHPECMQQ

[3] = 408-HHHHH linker mutant, NADH in excess, concentrations as for wild type
[4] = 408-AAAAA linker mutant, NADH in excess, concentrations as for wild type
[5] = 408-TIVVV linker mutant, NADH in excess, concentrations as for wild type
[6] = 408-WYHHH linker mutant, NADH in excess, concentrations as for wild type

“VpStyA2B (Variovorax paradoxus EPS; A408H/A411H/E410H/R409H/V412H)” gave a Km [1, 3] of 14.5 µM, a Vmax [1, 3] of 3.1 µmol/min/mg and a kcat/Km [1, 3] of 230000 M⁻¹ s⁻¹.

With “VpStyA2B (Variovorax paradoxus EPS; E410A/R409A/V412A)” the Km [1, 4] was 1.8 µM, the Vmax [1, 4] was 8.8 µmol/min/mg and the kcat/Km [1, 4] was 5.21e+06 M⁻¹ s⁻¹.

“VpStyA2B (Variovorax paradoxus EPS; A408T/A411V/E410V/R409I)” was tested, and the Km [1, 5] was 5.1 µM, the Vmax [1, 5] was 3.1 µmol/min/mg and the kcat/Km [1, 5] was 650000 M⁻¹ s⁻¹.

Work on VpStyA2B (Variovorax paradoxus EPS) yielded a Km ([1]; NADH 164 µM, FAD 6.3-78.8 µM) of 33.6 ± 4.0 µM, a Vmax ([1]; NADH 164 µM, FAD 6.3-78.8 µM) of 20.2 µmol/min/mg and a kcat ([1]; NADH 164 µM, FAD 6.3-78.8 µM) of 22.3 ± 1.1 s⁻¹. It also gave a kcat/Km ([1]; NADH 164 µM, FAD 6.3-78.8 µM) of 640000 M⁻¹ s⁻¹, a Km [2] of 45.9 ± 6.8 µM and a Vmax [2] of 26 µmol/min/mg. For the same molecule, the kcat [2] was 28.7 ± 1.9 s⁻¹ and the kcat/Km [2] was 570000 M⁻¹ s⁻¹.

Work on “VpStyA2B (Variovorax paradoxus EPS; A408W/A411H/E410H/R409Y/V412H)” yielded a Km [1, 6] of 3.2 µM, a Vmax [1, 6] of 6.9 µmol/min/mg and a kcat/Km [1, 6] of 2.3e+06 M⁻¹ s⁻¹.

Cc1cc2nc3c(=O)[nH]c(=O)nc-3n(C[C@H](O)[C@H](O)[C@H](O)COP(=O)(O)OP(=O)(O)OC[C@H]3O[C@@H](n4cnc5c(N)ncnc54)[C@H](O)[C@@H]3O)c2cc1C [FAD] was tested, and the Km (VpStyA2B) was 7.4 µM.
